# Reference: patent US20240132578A1
# Legend:
# [1] = target: WT JR-FL gp120 (HIV-1 JR-FL); test: ELISA, antigen-coated wells, mAb titrated; EC50 by nonlinear regression
# [2] = target: HIV-1 Env of isolate VLGCB3 (HIV-1); test: cell-based or functional assay
# [3] = target: HIV-1 Env of isolate 93IN905 (HIV-1); test: cell-based or functional assay
# [4] = target: HIV-1 Env of isolate NL43 (HIV-1); test: cell-based or functional assay
# [5] = target: HIV-1 Env of isolate THR0.18 (HIV-1); test: cell-based or functional assay
# [6] = target: HIV-1 Env of isolate MGRM-Chronic-B-017 (HIV-1); test: cell-based or functional assay
# [7] = target: HIV-1 Env of isolate 92UG031 (pseudovirus) (HIV-1); test: cell-based or functional assay
# [8] = target: HIV-1 Env of isolate MGRM-F1-018 (HIV-1); test: cell-based or functional assay
# [9] = target: HIV-1 Env of isolate MGRM-Chronic-B-024 (HIV-1); test: cell-based or functional assay
# [10] = target: HIV-1 Env of isolate 98IN022 (HIV-1); test: cell-based or functional assay
# [11] = target: HIV-1 Env of isolate 93MW959 (HIV-1); test: cell-based or functional assay
# [12] = target: HIV-1 Env of isolate 92WR024 (pseudovirus) (HIV-1); test: cell-based or functional assay
# [13] = target: HIV-1 Env of isolate 94UG103 (pseudovirus) (HIV-1); test: cell-based or functional assay
# [14] = target: HIV-1 Env of isolate 92WR021 (pseudovirus) (HIV-1); test: cell-based or functional assay
# [15] = target: HIV-1 Env of isolate 97ZA012 (HIV-1); test: cell-based or functional assay
# [16] = target: HIV-1 Env of isolate MGRM-D-005 (pseudovirus) (HIV-1); test: cell-based or functional assay
# [17] = target: HIV-1 Env of isolate SF162 (HIV-1) (UniProt P19550); test: cell-based or functional assay
# [18] = target: HIV-1 Env of isolate MGRM-Chronic-B-020 (HIV-1); test: cell-based or functional assay
# [19] = target: HIV-1 Env of isolate SC422661.8 (HIV-1); test: cell-based or functional assay
# [20] = target: HIV-1 Env of isolate MGRM-Chronic-B-018 (HIV-1); test: cell-based or functional assay
# [21] = target: HIV-1 Env of isolate 93UG077 (pseudovirus) (HIV-1); test: cell-based or functional assay
# [22] = target: HIV-1 Env of isolate PVO.4 (HIV-1); test: cell-based or functional assay
# [23] = target: HIV-1 Env of isolate 92WR020 (pseudovirus) (HIV-1); test: cell-based or functional assay
# [24] = target: HIV-1 Env of isolate MGRM-Chronic-B-011 (HIV-1); test: cell-based or functional assay
# [25] = target: HIV-1 Env of isolate JRCSF (HIV-1) (UniProt P20871); test: cell-based or functional assay
# [26] = target: HIV-1 Env of isolate 93WR029 (pseudovirus) (HIV-1); test: cell-based or functional assay
# [27] = target: HIV-1 Env of isolate TRJ04551.58 (HIV-1); test: cell-based or functional assay
# [28] = target: HIV-1 Env of isolate 92UG037 (pseudovirus) (HIV-1); test: cell-based or functional assay
# [29] = target: HIV-1 Env of isolate QH0692.42 (HIV-1); test: cell-based or functional assay
# [30] = target: HIV-1 Env of isolate MGRM-Chronic-B-012 (HIV-1); test: cell-based or functional assay
# [31] = target: HIV-1 Env of isolate MGRM-Chronic-B-023 (HIV-1); test: cell-based or functional assay
# [32] = target: HIV-1 Env of isolate TRO.11 (HIV-1); test: cell-based or functional assay
# [33] = target: HIV-1 Env of isolate MGRM-Chronic-B-010 (HIV-1); test: cell-based or functional assay
# [34] = target: HIV-1 92RW020 Env (HIV-1); test: cell-based or functional assay
Substance,EC50 [1],"IC50 (µg/mL), pseudovirus neutralization [2]","IC50 (µg/mL), pseudovirus neutralization [3]","IC50 (µg/mL), pseudovirus neutralization [4]","IC50 (µg/mL), pseudovirus neutralization [5]","IC50 (µg/mL), pseudovirus neutralization [6]","IC50 (µg/mL), pseudovirus neutralization [7]","IC50 (µg/mL), pseudovirus neutralization [8]","IC50 (µg/mL), pseudovirus neutralization [9]","IC50 (µg/mL), pseudovirus neutralization [10]","IC50 (µg/mL), pseudovirus neutralization [11]","IC50 (µg/mL), pseudovirus neutralization [12]","IC50 (µg/mL), pseudovirus neutralization [13]","IC50 (µg/mL), pseudovirus neutralization [14]","IC50 (µg/mL), pseudovirus neutralization [15]","IC50 (µg/mL), pseudovirus neutralization [16]","IC50 (µg/mL), pseudovirus neutralization [17]","IC50 (µg/mL), pseudovirus neutralization [18]","IC50 (µg/mL), pseudovirus neutralization [19]","IC50 (µg/mL), pseudovirus neutralization [20]",other results
5114_A19 (PGT-128) (antibody),0.1 µg/mL,0.012 µg/mL,0.009 µg/mL,> 50 µg/mL,> 50 µg/mL,> 50 µg/mL,> 50 µg/mL,0.023 µg/mL,> 50 µg/mL,0.014 µg/mL,0.045 µg/mL,> 50 µg/mL,0.011 µg/mL,0.005 µg/mL,0.019 µg/mL,0.051 µg/mL,0.007 µg/mL,0.007 µg/mL,1.58 µg/mL,0.02 µg/mL,"IC50 (µg/mL), pseudovirus neutralization [21]: 0.014 µg/mL; IC50 (µg/mL), pseudovirus neutralization [22]: 0.005 µg/mL; IC50 (µg/mL), pseudovirus neutralization [23]: 0.005 µg/mL; IC50 (µg/mL), pseudovirus neutralization [24]: 0.02 µg/mL; IC50 (µg/mL), pseudovirus neutralization [25]: 0.003 µg/mL; IC50 (µg/mL), pseudovirus neutralization [26]: > 50 µg/mL; IC50 (µg/mL), pseudovirus neutralization [27]: 0.019 µg/mL; IC50 (µg/mL), pseudovirus neutralization [28]: 0.006 µg/mL; IC50 (µg/mL), pseudovirus neutralization [29]: 0.029 µg/mL; IC50 (µg/mL), pseudovirus neutralization [30]: 0.026 µg/mL; IC50 (µg/mL), pseudovirus neutralization [31]: > 50 µg/mL; IC50 (µg/mL), pseudovirus neutralization [32]: 0.018 µg/mL; IC50 (µg/mL), pseudovirus neutralization [33]: 0.004 µg/mL"
5329_C19 (PGT-136) (antibody),0.2 µg/mL,> 50 µg/mL,0.011 µg/mL,27.7 µg/mL,> 50 µg/mL,> 50 µg/mL,> 50 µg/mL,> 50 µg/mL,> 50 µg/mL,13.6 µg/mL,> 50 µg/mL,> 50 µg/mL,> 50 µg/mL,> 50 µg/mL,> 50 µg/mL,> 50 µg/mL,0.482 µg/mL,> 50 µg/mL,> 50 µg/mL,> 50 µg/mL,"IC50, pseudovirus neutralization [34]: 0.738 µg/mL; IC50 (µg/mL), pseudovirus neutralization [21]: > 50 µg/mL; IC50 (µg/mL), pseudovirus neutralization [22]: > 50 µg/mL; IC50 (µg/mL), pseudovirus neutralization [23]: 2.33 µg/mL; IC50 (µg/mL), pseudovirus neutralization [24]: > 50 µg/mL; IC50 (µg/mL), pseudovirus neutralization [25]: > 50 µg/mL; IC50 (µg/mL), pseudovirus neutralization [26]: > 50 µg/mL; IC50 (µg/mL), pseudovirus neutralization [27]: > 50 µg/mL; IC50 (µg/mL), pseudovirus neutralization [28]: > 50 µg/mL; IC50 (µg/mL), pseudovirus neutralization [29]: > 50 µg/mL; IC50 (µg/mL), pseudovirus neutralization [30]: 43.1 µg/mL; IC50 (µg/mL), pseudovirus neutralization [31]: > 50 µg/mL; IC50 (µg/mL), pseudovirus neutralization [32]: 0.073 µg/mL; IC50 (µg/mL), pseudovirus neutralization [33]: > 50 µg/mL"
5136_H01 (PGT-131) (antibody),0.4 µg/mL,> 50 µg/mL,0.177 µg/mL,> 50 µg/mL,> 50 µg/mL,> 50 µg/mL,> 50 µg/mL,> 50 µg/mL,> 50 µg/mL,> 50 µg/mL,> 50 µg/mL,> 50 µg/mL,1.1 µg/mL,0.012 µg/mL,1.81 µg/mL,> 50 µg/mL,0.025 µg/mL,0.053 µg/mL,> 50 µg/mL,> 50 µg/mL,"IC50 (µg/mL), pseudovirus neutralization [21]: > 50 µg/mL; IC50 (µg/mL), pseudovirus neutralization [22]: > 50 µg/mL; IC50 (µg/mL), pseudovirus neutralization [23]: 0.168 µg/mL; IC50 (µg/mL), pseudovirus neutralization [24]: 6.47 µg/mL; IC50 (µg/mL), pseudovirus neutralization [25]: 0.029 µg/mL; IC50 (µg/mL), pseudovirus neutralization [26]: > 50 µg/mL; IC50 (µg/mL), pseudovirus neutralization [27]: 0.088 µg/mL; IC50 (µg/mL), pseudovirus neutralization [28]: 0.048 µg/mL; IC50 (µg/mL), pseudovirus neutralization [29]: > 50 µg/mL; IC50 (µg/mL), pseudovirus neutralization [30]: 15.7 µg/mL; IC50 (µg/mL), pseudovirus neutralization [31]: > 50 µg/mL; IC50 (µg/mL), pseudovirus neutralization [32]: 1.91 µg/mL; IC50 (µg/mL), pseudovirus neutralization [33]: 0.016 µg/mL"
